Data published in paper PMC4089490, “Structures of the NLRP14 pyrin domain reveal a conformational switch mechanism regulating its molecular interactions” (Acta Crystallographica Section D: Biological Crystallography, 2014).

Key:
[1] = molecular target: the molecule itself; test: SEC; analytical Superdex 75 10/300, 20 mM Tris pH 8.0, 150 mM NaCl, 5 mM TCEP; 700 µl at 1 mg/ml injected; monomer:dimer ratio from peak areas
Q86W24 = test: as above

B1: NLRP14 PYD (wild-type NLRP14 pyrin domain, residues Met1-Gln100) (domain or fragment, human, UniProt Q86W24 1-100, looked up)
chain: MADSSSSSFFPDFGLLLYLEELNKEELNTFKLFLKETMEPEHGLTPWNEVKKARREDLANLMKKYYPGEKAWSVSLKIFGKMNLKDLCERAKEEINWSAQ
notes: NLRP14 pyrin domain, human, residues Met1-Gln100, amplified from human NLRP14 cDNA GenBank NM_176822.3; The crystal structure (PDB 4n1j) was solved from selenomethionine-labelled protein expressed in SeMet minimal medium and purified identically; SEC used the native protein; also called wild-type NLRP14 PYD; wild-type PYD; source: E. coli BL21 Star (DE3), purified (Ni-NTA, eluted by thrombin …)
- stoichiometry N [1]: 2
- dimer fraction (SEC peak area) (Q86W24): dimeric (17%)

B2: NLRP14 PYD D86V (protein)
chain: MADSSSSSFFPDFGLLLYLEELNKEELNTFKLFLKETMEPEHGLTPWNEVKKARREDLANLMKKYYPGEKAWSVSLKIFGKMNLKVLCERAKEEINWSAQ
- dimer fraction (SEC peak area) (Q86W24): 12.13 ml, 24%
